US20260250318A1, “COMPOSITIONS AND METHODS FOR CROSSING THE BLOOD BRAIN BARRIER” (VOYAGER THERAPEUTICS, INC., priority 2022, published 2026)
Positions count from the first letter of the chain named. Like-named read-outs stand apart in the source and are kept apart here.

T1: AAVR (Homo sapiens, UniProt Q8IZA0)
T1 construct: expressed in transfected cells; host or cells: HEK 293T
T1 sequence (Q8IZA0 whole entry, looked up): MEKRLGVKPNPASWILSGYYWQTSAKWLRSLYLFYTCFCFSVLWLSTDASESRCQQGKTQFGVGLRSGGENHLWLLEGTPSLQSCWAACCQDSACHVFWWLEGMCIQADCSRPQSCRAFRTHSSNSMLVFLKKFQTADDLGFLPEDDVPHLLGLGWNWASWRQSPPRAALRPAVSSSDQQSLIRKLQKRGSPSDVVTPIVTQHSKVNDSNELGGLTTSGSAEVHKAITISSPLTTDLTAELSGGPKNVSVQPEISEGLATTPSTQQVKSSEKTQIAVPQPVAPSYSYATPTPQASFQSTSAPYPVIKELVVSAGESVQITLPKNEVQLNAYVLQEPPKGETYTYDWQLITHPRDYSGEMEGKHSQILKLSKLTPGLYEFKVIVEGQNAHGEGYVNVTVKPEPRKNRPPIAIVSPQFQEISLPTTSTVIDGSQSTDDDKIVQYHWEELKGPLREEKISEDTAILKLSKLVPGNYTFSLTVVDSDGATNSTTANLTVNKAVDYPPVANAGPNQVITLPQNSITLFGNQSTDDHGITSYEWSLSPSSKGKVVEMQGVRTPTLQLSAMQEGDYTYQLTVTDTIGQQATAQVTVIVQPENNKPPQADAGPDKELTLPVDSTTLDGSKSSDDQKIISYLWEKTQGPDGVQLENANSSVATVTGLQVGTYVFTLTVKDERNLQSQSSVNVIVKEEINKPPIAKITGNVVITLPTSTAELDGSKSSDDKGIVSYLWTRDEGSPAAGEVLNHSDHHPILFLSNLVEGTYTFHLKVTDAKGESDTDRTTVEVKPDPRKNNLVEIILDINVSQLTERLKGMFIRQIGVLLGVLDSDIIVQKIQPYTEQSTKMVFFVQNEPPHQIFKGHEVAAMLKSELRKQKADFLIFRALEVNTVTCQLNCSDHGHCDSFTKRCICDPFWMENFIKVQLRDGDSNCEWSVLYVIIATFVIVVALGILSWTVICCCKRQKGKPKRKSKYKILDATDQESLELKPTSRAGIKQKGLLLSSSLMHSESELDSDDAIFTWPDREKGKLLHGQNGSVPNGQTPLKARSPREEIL

T2: ALPL (Homo sapiens, UniProt P05186)
T2 construct: expressed in transfected cells; host or cells: HEK 293T
T2 sequence (P05186 whole entry, looked up): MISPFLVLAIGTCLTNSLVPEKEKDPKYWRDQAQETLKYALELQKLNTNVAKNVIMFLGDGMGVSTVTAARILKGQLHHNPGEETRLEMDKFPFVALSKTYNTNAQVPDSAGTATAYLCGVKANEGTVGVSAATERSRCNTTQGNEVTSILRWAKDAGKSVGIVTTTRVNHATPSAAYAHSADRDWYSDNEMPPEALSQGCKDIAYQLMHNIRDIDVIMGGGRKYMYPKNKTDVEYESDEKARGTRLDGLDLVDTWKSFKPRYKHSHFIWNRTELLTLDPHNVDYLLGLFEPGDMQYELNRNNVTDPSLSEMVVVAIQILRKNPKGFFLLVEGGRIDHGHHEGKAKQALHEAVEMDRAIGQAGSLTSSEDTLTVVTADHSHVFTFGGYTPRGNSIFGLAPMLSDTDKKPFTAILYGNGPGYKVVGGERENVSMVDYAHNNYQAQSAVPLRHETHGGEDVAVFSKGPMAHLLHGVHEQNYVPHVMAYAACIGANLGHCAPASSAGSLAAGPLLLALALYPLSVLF

B1: TTM-001: AAV9 capsid variant comprising SPHSKA (SEQ ID NO: 941) in loop IV (protein)
chain 1: MAADGYLPDWLEDNLSEGIREWWALKPGAPQPKANQQHQDNARGLVLPGYKYLGPGNGLDKGEPVNAADAAALEHDKAYDQQLKAGDNPYLKYNHADAEFQERLKEDTSFGGNLGRAVFQAKKRLLEPLGLVEEAAKTAPGKKRPVEQSPQEPDSSAGIGKSGAQPAKKRLNFGQTGDTESVPDPQPIGEPPAAPSGVGSLTMASGGGAPVADNNEGADGVGSSSGNWHCDSQWLGDRVITTSTRTWALPTYNNHLYKQISNSTSGGSSNDNAYFGYSTPWGYFDFNRFHCHFSPRDWQRLINNNWGFRPKRLNFKLFNIQVKEVTDNNGVKTIANNLTSTVQVFTDSDYQLPYVLGSAHEGCLPPFPADVFMIPQYGYLTLNDGSQAVGRSSFYCLEYFPSQMLRTGNNFQFSYEFENVPFHSSYAHSQSLDRLMNPLIDQYLYYLSKTINGSGSPHSKAQNQQTLKFSVAGPSNMAVQGRNYIPGPSYRQQRVSTTVTQNNNSEFAWPGASSWALNGRNSLMNPGPAMASHKEGEDRFFPLSGSLIFGKQGTGRDNVDADKVMITNEEEIKTTNPVATESYGQVATNHQSAQAQAQTGWVQNQGILPGMVWQDRDVYLQGPIWAKIPHTDGNFHPSPLMGGFGMKHPPPQILIKNTPVPADPPTAFNKDKLNSFITQYSTGQVSVEIEWELQKENSKRWNPEIQYTSNYYKSNNVEFAVNTEGVYSEPRPIGTRYLTRNL
chain 2: GSGSPHSKAQNQQT
B2: TTM-002: AAV9 capsid variant comprising HDSPHK (SEQ ID NO: 2) in loop IV (protein)
chain 1: B1 chain 1 with S454H, G455D, S459K, K460S, A461G
chain 2: GHDSPHKSGQNQQT

Key:
AAVR = biological target: T1, AAVR; format: cell-based; settings: for Luciferase Activity (fold change relative to pCMV6 transfected cells) / Luciferase Activity (RLU): AAVR transfected cells; for Fold change in luciferase activity relative to the pCMV6 control cells: Table 35, Receptor AAVR; for Luciferase Activity (RLU): Table 30
Procedure: (§1) Briefly, a transduction assay was performed in that HEK 293T cells were transfected via calcium phosphate transfection with a plasmid expressing ALPL, an AAVR positive control, or a pCMV6 negative control (250 ng or 500 ng of plasmid). AAVR is a universal AAV entry factor involved in AAV transduction. […] At 24-hours post-transduction, GFP expression and luciferase activity were measured to quantify and observe AAV cellular transduction. […] The TTM-002, TTM-006, TTM-018, and TTM-019 capsid variants all comprised the SPH motif immediately subsequent to position 455, numbered relative to SEQ ID NO: 138 and a positive residue in one of the next three residues subsequent to the SPH motif.

[1] = tested on: N-linked galactose on HeLa cells; experiment: Transduction of HeLa cells after neuraminidase treatment (Luc2 activity); format: cell-based, human
Procedure: Primary glycan receptors have been identified for various AAV serotypes, including AAV9 which binds N-linked galactose. In order to investigate the ability of TTM-001 and TTM-002 AAV9 variants to retain this natural glycan binding, HeLa cells were treated with increasing concentrations of Neuraminidase ([…]), which cleaves N-sialic acid and exposes N-galactose. The treated cells were then transduced with AAV particles comprising the TTM-001 capsid variant (AAV_TTM-001), the TTM-002 capsid variant (AAV_TTM-002), or an AAV9 control (AAV_AAV9cntl), transduction was measured by quantification of Luc2 activity (RLU), and data was normalized relative to the no neuraminidase control.

[2] = tested on: N-linked galactose on HeLa cells; experiment: as above; format: cell-based, human; settings: Neuraminidase 1000 mU/mL
ALPL = biological target: T2, ALPL; format: cell-based; settings: for fold increase in transduction by luciferase assay in cells expressing ALPL: relative to pCMV6 transfected cells, 24 hours post-transduction; for Luciferase Activity (RLU): Table 30, ALPL transfected cells
Procedure: as §1
To determine if the TTM-001 and TTM-002 capsid variants could bind to both the human ALPL protein (NM_000478.6, which is incorporated by reference herein) and the mouse ALPL ortholog (NM_001287172.1, which is incorporated by reference herein), HEK 293T cells were transfected via calcium phosphate transfection with a plasmid expressing human ALPL, the murine ortholog of ALPL, or a pCMV6 negative control. At 24 hours post-transfection, the HEK 293T cells expressing the ALPL receptor were transduced with an AAV particle comprising the TTM-001 capsid variant, the TTM-002 capsid variant, or an AAV9 control capsid protein, expressing a Luc2-GFP payload. At 24-hours post-transduction, luciferase activity (RLU) was measured to quantify AAV cellular transduction.

Molecule	Luciferase Activity (fold change relative to pCMV6 transfected cells) (AAVR; Table 27) [fold]	Luciferase Activity (fold change relative to pCMV6 transfected cells) (AAVR; Table 28) [fold]	Fold change in luciferase activity relative to the pCMV6 control cells (AAVR) [fold]	fold change in Luc2 activity (RLU) relative to the no neuraminidase control ([1]; Neuraminidase 5 mU/mL) [fold]	fold change in Luc2 activity (RLU) relative to the no neuraminidase control ([1]; Neuraminidase 50 mU/mL) [fold]	fold change in Luc2 activity (RLU) relative to the no neuraminidase control ([1]; Neuraminidase 500 mU/mL) [fold]	fold change in Luc2 activity (RLU) relative to the no neuraminidase control [2] [fold]	fold increase in transduction by luciferase assay in cells expressing ALPL (ALPL)	Luciferase Activity (RLU) (AAVR)	Luciferase Activity (RLU) (ALPL)	transduction in cells expressing the AAVR control (AAVR; compared with ALPL expression)	transduction by immunofluorescence microscopy in cells expressing ALPL (ALPL; GFP, compared to AAV9 control capsid)
AAV9: wild-type AAV9 control capsid [reference compound]	4.3	14	4.9	2.7	6.2	11.1	10.4	not affected				
B1	2.4			5.2	6.7	8.2	9.1		13,981 RLU	93,268 RLU		
B2	4.1		7.3	9.6	12.5	13.9	13.7	45 fold	11,261 RLU	46,182 RLU	did not result in the same increase in transduction	a significant increase in the transduction
